Starred links: 1 amine or outer side, 2 acyl side, 3 side chain; linkers in the order of their positions; H or OH if unused. Non-standard residues stand in square brackets, D forms with d. Groups on a side chain read outwards from the residue. No end group written: not given here. *: point of attachment. C18 diacid = O=C(O)CCCCCCCCCCCCCCCCC(=O)*; γGlu = O=C(O)[C@H](CCC(=O)[*:2])N[*:1]; Palmitoyl = CCCCCCCCCCCCCCCC(=O)*; AEEA = NCCOCCOCC(=O)O; Aib = CC(C)(N)C(=O)O
Target: human corticotropin-releasing factor 2α (CRF2 α receptor) (human), Q13324
Assay: cell-based or functional assay

Chain of human corticotropin-releasing factor 2α (CRF2 α receptor) (human), Q13324 (Q13324 20-411): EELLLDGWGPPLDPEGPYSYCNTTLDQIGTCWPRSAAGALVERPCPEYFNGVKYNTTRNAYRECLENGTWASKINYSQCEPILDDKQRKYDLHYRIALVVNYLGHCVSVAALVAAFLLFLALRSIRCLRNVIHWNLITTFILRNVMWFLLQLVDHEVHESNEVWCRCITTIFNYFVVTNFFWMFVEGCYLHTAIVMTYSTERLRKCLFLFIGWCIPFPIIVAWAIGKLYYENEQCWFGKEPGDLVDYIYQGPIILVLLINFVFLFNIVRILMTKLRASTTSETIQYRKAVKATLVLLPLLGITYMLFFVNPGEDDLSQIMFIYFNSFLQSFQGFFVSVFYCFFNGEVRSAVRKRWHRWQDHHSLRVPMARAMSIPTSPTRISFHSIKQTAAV

B1: SEQ ID NO: 152 (peptide)
peptide: IVLSLDVPIKLK([AEEA-AEEA-γGlu-C18 diacid])QILLKQERQKK[Aib]REQAETNKRILERV-NH2
modifications: N-terminus assumed
SMILES: CC[C@H](C)[C@H](N)C(=O)N[C@H](C(=O)N[C@@H](CC(C)C)C(=O)N[C@@H](CO)C(=O)N[C@@H](CC(C)C)C(=O)N[C@@H](CC(=O)O)C(=O)N[C@H](C(=O)N1CCC[C@H]1C(=O)N[C@H](C(=O)N[C@@H](CCCCN)C(=O)N[C@@H](CC(C)C)C(=O)N[C@@H](CCCCNC(=O)COCCOCCNC(=O)COCCOCCNC(=O)CC[C@H](NC(=O)CCCCCCCCCCCCCCCCC(=O)O)C(=O)O)C(=O)N[C@@H](CCC(N)=O)C(=O)N[C@H](C(=O)N[C@@H](CC(C)C)C(=O)N[C@@H](CC(C)C)C(=O)N[C@@H](CCCCN)C(=O)N[C@@H](CCC(N)=O)C(=O)N[C@@H](CCC(=O)O)C(=O)N[C@@H](CCCNC(=N)N)C(=O)N[C@@H](CCC(N)=O)C(=O)N[C@@H](CCCCN)C(=O)N[C@@H](CCCCN)C(=O)NC(C)(C)C(=O)N[C@@H](CCCNC(=N)N)C(=O)N[C@@H](CCC(=O)O)C(=O)N[C@@H](CCC(N)=O)C(=O)N[C@@H](C)C(=O)N[C@@H](CCC(=O)O)C(=O)N[C@H](C(=O)N[C@@H](CC(N)=O)C(=O)N[C@@H](CCCCN)C(=O)N[C@@H](CCCNC(=N)N)C(=O)N[C@H](C(=O)N[C@@H](CC(C)C)C(=O)N[C@@H](CCC(=O)O)C(=O)N[C@@H](CCCNC(=N)N)C(=O)N[C@H](C(N)=O)C(C)C)[C@@H](C)CC)[C@@H](C)O)[C@@H](C)CC)[C@@H](C)CC)C(C)C)C(C)C
  EC50 [nM], 0% HSA: 0.09 nM
  EC50 [nM], 0.1% HSA: 4.94 nM

B2: SEQ ID NO: 156 (peptide)
peptide: IVLSLDVPIGLK([AEEA-AEEA-γGlu-C18 diacid])QILLKQERQKK[Aib]REQAETNAQILAQV-NH2
modifications: N-terminus assumed
SMILES: CC[C@H](C)[C@H](N)C(=O)N[C@H](C(=O)N[C@@H](CC(C)C)C(=O)N[C@@H](CO)C(=O)N[C@@H](CC(C)C)C(=O)N[C@@H](CC(=O)O)C(=O)N[C@H](C(=O)N1CCC[C@H]1C(=O)N[C@H](C(=O)NCC(=O)N[C@@H](CC(C)C)C(=O)N[C@@H](CCCCNC(=O)COCCOCCNC(=O)COCCOCCNC(=O)CC[C@H](NC(=O)CCCCCCCCCCCCCCCCC(=O)O)C(=O)O)C(=O)N[C@@H](CCC(N)=O)C(=O)N[C@H](C(=O)N[C@@H](CC(C)C)C(=O)N[C@@H](CC(C)C)C(=O)N[C@@H](CCCCN)C(=O)N[C@@H](CCC(N)=O)C(=O)N[C@@H](CCC(=O)O)C(=O)N[C@@H](CCCNC(=N)N)C(=O)N[C@@H](CCC(N)=O)C(=O)N[C@@H](CCCCN)C(=O)N[C@@H](CCCCN)C(=O)NC(C)(C)C(=O)N[C@@H](CCCNC(=N)N)C(=O)N[C@@H](CCC(=O)O)C(=O)N[C@@H](CCC(N)=O)C(=O)N[C@@H](C)C(=O)N[C@@H](CCC(=O)O)C(=O)N[C@H](C(=O)N[C@@H](CC(N)=O)C(=O)N[C@@H](C)C(=O)N[C@@H](CCC(N)=O)C(=O)N[C@H](C(=O)N[C@@H](CC(C)C)C(=O)N[C@@H](C)C(=O)N[C@@H](CCC(N)=O)C(=O)N[C@H](C(N)=O)C(C)C)[C@@H](C)CC)[C@@H](C)O)[C@@H](C)CC)[C@@H](C)CC)C(C)C)C(C)C
  EC50 [nM], 0% HSA: 1.06 nM

B3: SEQ ID NO: 155 (peptide)
peptide: IVLSLDVPIGLK([AEEA-AEEA-γGlu-C18 diacid])QILLEQEKQEKEKQQAEKNKRILERV-NH2
modifications: N-terminus assumed
SMILES: CC[C@H](C)[C@H](N)C(=O)N[C@H](C(=O)N[C@@H](CC(C)C)C(=O)N[C@@H](CO)C(=O)N[C@@H](CC(C)C)C(=O)N[C@@H](CC(=O)O)C(=O)N[C@H](C(=O)N1CCC[C@H]1C(=O)N[C@H](C(=O)NCC(=O)N[C@@H](CC(C)C)C(=O)N[C@@H](CCCCNC(=O)COCCOCCNC(=O)COCCOCCNC(=O)CC[C@H](NC(=O)CCCCCCCCCCCCCCCCC(=O)O)C(=O)O)C(=O)N[C@@H](CCC(N)=O)C(=O)N[C@H](C(=O)N[C@@H](CC(C)C)C(=O)N[C@@H](CC(C)C)C(=O)N[C@@H](CCC(=O)O)C(=O)N[C@@H](CCC(N)=O)C(=O)N[C@@H](CCC(=O)O)C(=O)N[C@@H](CCCCN)C(=O)N[C@@H](CCC(N)=O)C(=O)N[C@@H](CCC(=O)O)C(=O)N[C@@H](CCCCN)C(=O)N[C@@H](CCC(=O)O)C(=O)N[C@@H](CCCCN)C(=O)N[C@@H](CCC(N)=O)C(=O)N[C@@H](CCC(N)=O)C(=O)N[C@@H](C)C(=O)N[C@@H](CCC(=O)O)C(=O)N[C@@H](CCCCN)C(=O)N[C@@H](CC(N)=O)C(=O)N[C@@H](CCCCN)C(=O)N[C@@H](CCCNC(=N)N)C(=O)N[C@H](C(=O)N[C@@H](CC(C)C)C(=O)N[C@@H](CCC(=O)O)C(=O)N[C@@H](CCCNC(=N)N)C(=O)N[C@H](C(N)=O)C(C)C)[C@@H](C)CC)[C@@H](C)CC)[C@@H](C)CC)C(C)C)C(C)C
  EC50 [nM], 0% HSA: 8.87 nM

B4: SEQ ID NO: 17 (peptide)
peptide: IVLSLDVPIKLK([γGlu-Palmitoyl])KILLEQEKQKKQREQAETNKQILAQV-NH2
modifications: N-terminus assumed
SMILES: CCCCCCCCCCCCCCCC(=O)N[C@@H](CCC(=O)NCCCC[C@H](NC(=O)[C@H](CC(C)C)NC(=O)[C@H](CCCCN)NC(=O)[C@@H](NC(=O)[C@@H]1CCCN1C(=O)[C@@H](NC(=O)[C@H](CC(=O)O)NC(=O)[C@H](CC(C)C)NC(=O)[C@H](CO)NC(=O)[C@H](CC(C)C)NC(=O)[C@@H](NC(=O)[C@@H](N)[C@@H](C)CC)C(C)C)C(C)C)[C@@H](C)CC)C(=O)N[C@@H](CCCCN)C(=O)N[C@H](C(=O)N[C@@H](CC(C)C)C(=O)N[C@@H](CC(C)C)C(=O)N[C@@H](CCC(=O)O)C(=O)N[C@@H](CCC(N)=O)C(=O)N[C@@H](CCC(=O)O)C(=O)N[C@@H](CCCCN)C(=O)N[C@@H](CCC(N)=O)C(=O)N[C@@H](CCCCN)C(=O)N[C@@H](CCCCN)C(=O)N[C@@H](CCC(N)=O)C(=O)N[C@@H](CCCNC(=N)N)C(=O)N[C@@H](CCC(=O)O)C(=O)N[C@@H](CCC(N)=O)C(=O)N[C@@H](C)C(=O)N[C@@H](CCC(=O)O)C(=O)N[C@H](C(=O)N[C@@H](CC(N)=O)C(=O)N[C@@H](CCCCN)C(=O)N[C@@H](CCC(N)=O)C(=O)N[C@H](C(=O)N[C@@H](CC(C)C)C(=O)N[C@@H](C)C(=O)N[C@@H](CCC(N)=O)C(=O)N[C@H](C(N)=O)C(C)C)[C@@H](C)CC)[C@@H](C)O)[C@@H](C)CC)C(=O)O
  EC50 [nM], 0% HSA: 0.02 nM

B5: SEQ ID NO: 154 (peptide)
peptide: IVLSLDVPIGLK([AEEA-AEEA-γGlu-C18 diacid])QILLEQEKQEKEKQQAETNKRILERV-NH2
modifications: N-terminus assumed
SMILES: CC[C@H](C)[C@H](N)C(=O)N[C@H](C(=O)N[C@@H](CC(C)C)C(=O)N[C@@H](CO)C(=O)N[C@@H](CC(C)C)C(=O)N[C@@H](CC(=O)O)C(=O)N[C@H](C(=O)N1CCC[C@H]1C(=O)N[C@H](C(=O)NCC(=O)N[C@@H](CC(C)C)C(=O)N[C@@H](CCCCNC(=O)COCCOCCNC(=O)COCCOCCNC(=O)CC[C@H](NC(=O)CCCCCCCCCCCCCCCCC(=O)O)C(=O)O)C(=O)N[C@@H](CCC(N)=O)C(=O)N[C@H](C(=O)N[C@@H](CC(C)C)C(=O)N[C@@H](CC(C)C)C(=O)N[C@@H](CCC(=O)O)C(=O)N[C@@H](CCC(N)=O)C(=O)N[C@@H](CCC(=O)O)C(=O)N[C@@H](CCCCN)C(=O)N[C@@H](CCC(N)=O)C(=O)N[C@@H](CCC(=O)O)C(=O)N[C@@H](CCCCN)C(=O)N[C@@H](CCC(=O)O)C(=O)N[C@@H](CCCCN)C(=O)N[C@@H](CCC(N)=O)C(=O)N[C@@H](CCC(N)=O)C(=O)N[C@@H](C)C(=O)N[C@@H](CCC(=O)O)C(=O)N[C@H](C(=O)N[C@@H](CC(N)=O)C(=O)N[C@@H](CCCCN)C(=O)N[C@@H](CCCNC(=N)N)C(=O)N[C@H](C(=O)N[C@@H](CC(C)C)C(=O)N[C@@H](CCC(=O)O)C(=O)N[C@@H](CCCNC(=N)N)C(=O)N[C@H](C(N)=O)C(C)C)[C@@H](C)CC)[C@@H](C)O)[C@@H](C)CC)[C@@H](C)CC)C(C)C)C(C)C
  EC50 [nM], 0% HSA: 15 nM
  EC50 [nM], 0.1% HSA: 15.3 nM

B6: SEQ ID NO: 153 (peptide)
peptide: Ac-IVLSLDVPIGLK([AEEA-AEEA-γGlu-C18 diacid])QILLEQEKQEKEKQQAETNAQILAQV-NH2
SMILES: CC[C@H](C)[C@H](NC(C)=O)C(=O)N[C@H](C(=O)N[C@@H](CC(C)C)C(=O)N[C@@H](CO)C(=O)N[C@@H](CC(C)C)C(=O)N[C@@H](CC(=O)O)C(=O)N[C@H](C(=O)N1CCC[C@H]1C(=O)N[C@H](C(=O)NCC(=O)N[C@@H](CC(C)C)C(=O)N[C@@H](CCCCNC(=O)COCCOCCNC(=O)COCCOCCNC(=O)CC[C@H](NC(=O)CCCCCCCCCCCCCCCCC(=O)O)C(=O)O)C(=O)N[C@@H](CCC(N)=O)C(=O)N[C@H](C(=O)N[C@@H](CC(C)C)C(=O)N[C@@H](CC(C)C)C(=O)N[C@@H](CCC(=O)O)C(=O)N[C@@H](CCC(N)=O)C(=O)N[C@@H](CCC(=O)O)C(=O)N[C@@H](CCCCN)C(=O)N[C@@H](CCC(N)=O)C(=O)N[C@@H](CCC(=O)O)C(=O)N[C@@H](CCCCN)C(=O)N[C@@H](CCC(=O)O)C(=O)N[C@@H](CCCCN)C(=O)N[C@@H](CCC(N)=O)C(=O)N[C@@H](CCC(N)=O)C(=O)N[C@@H](C)C(=O)N[C@@H](CCC(=O)O)C(=O)N[C@H](C(=O)N[C@@H](CC(N)=O)C(=O)N[C@@H](C)C(=O)N[C@@H](CCC(N)=O)C(=O)N[C@H](C(=O)N[C@@H](CC(C)C)C(=O)N[C@@H](C)C(=O)N[C@@H](CCC(N)=O)C(=O)N[C@H](C(N)=O)C(C)C)[C@@H](C)CC)[C@@H](C)O)[C@@H](C)CC)[C@@H](C)CC)C(C)C)C(C)C
  EC50 [nM], 0% HSA: 33.7 nM

— patent US12679878B2, “CRF2 receptor agonists and their use in therapy” (SANOFI, priority 2020, dated 2026)
